{"source": "paper PMC12582121", "target": "glyceraldehyde-3-phosphate dehydrogenase (GAPDH) (human) (UniProt P04406)", "assay": "mass photometry; recombinant GAPDH without RNA; 100 nM GAPDH in binding buffer (10 mM Tris-HCl pH 8.0, 50 mM KCl, 2 mM DTT, 0.5 mM EDTA), 25 min at room temperature, diluted 1:10 for measurement; TwoMP mass photometer; monomer and tetramer peaks seen", "data": [{"substance": "glyceraldehyde-3-phosphate dehydrogenase (GAPDH), P04406 1-335 (enzyme; other documents disagree on this pair)", "values": [{"measurement": "stoichiometry N", "result": 4}]}]}
